Test results from patent publication US20020115184.

Legend:
[1] = target: T1, immature TasA protein (pro-TasA), 34 kDa
T1 chain: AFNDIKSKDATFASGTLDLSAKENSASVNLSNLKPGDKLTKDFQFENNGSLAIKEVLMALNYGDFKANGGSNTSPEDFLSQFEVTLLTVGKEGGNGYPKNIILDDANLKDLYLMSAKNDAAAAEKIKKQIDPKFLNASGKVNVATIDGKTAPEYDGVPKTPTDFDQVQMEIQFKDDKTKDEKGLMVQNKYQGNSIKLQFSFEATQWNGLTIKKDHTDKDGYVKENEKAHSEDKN

B. subtilis YqxM protein = target: T2, B. subtilis YqxM protein
T2 chain: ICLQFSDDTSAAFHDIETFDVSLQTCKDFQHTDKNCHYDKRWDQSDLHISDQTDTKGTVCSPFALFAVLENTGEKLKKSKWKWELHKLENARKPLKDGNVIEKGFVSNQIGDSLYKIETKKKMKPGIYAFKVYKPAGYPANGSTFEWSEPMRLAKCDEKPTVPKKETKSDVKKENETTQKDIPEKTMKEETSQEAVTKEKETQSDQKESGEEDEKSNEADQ

B1: B. subtilis SipW protein (signal peptidase) (protein)
chain: MKLISNILYVIIFTLIIVLTLVVISTRSSGGEPAVFGYTLKSVLSGSMEPEFNTGSLILVKEITDVKELQKGDVITFMQDANTAVTHRIVDITKQGDHLLFKTKGDNNAAADSAPVSDENVRAQYTGFQLPYAGYMLHFASQPIGTAVLLIVPGVMLLVYAFVTISSAIREIERKTKALETDTKDSTMST
Western blot for mature TasA in a strain where the neo promoter drives sipW and TasA and YqxM is disrupted [1]: A band corresponding to mature TasA was detected in extracts of spores and in both the culture supernatants and lysates of sporangia and vegetative cells. No protein of larger molecular weight that could correspond to immature TasA was detected.
Western blot of TasA size in sipW deletion strains (34 kDa immature against 31 kDa mature) [1]: a 34 kDa band was detected in both sporangial lysates and vegetative cells
Western blot of YqxM in concentrated E. coli culture supernatants (B. subtilis YqxM protein): when both YqxM and SipW were produced, YqxM was abundant in the culture supernatant and migrated as a smaller 31 kD species
YqxM associated with the spore, with sipW deleted or under pSpac control (B. subtilis YqxM protein): deletion of sipW resulted in no measurable amount of YqxM associated with the spore
